The assay deals with human carbonic anhydrase 9 (CAIX) (human), Q16790. Put plainly: FACS competition on HT-29 cells, competitor tracer 3BP-2776; category A = pIC50 >8.0.

The values that follow come from patent publication US20250339569A1, “CARBONIC ANHYDRASE IX LIGANDS” (priority 2021, published 2025).

VCCEPDWLTWCC (modifications not checked) [3BP-4179] displayed a pIC50 greater than 8 pic50.
